The source of these data is patent publication US20240026407A1, “MODIFICATION OF SAPONINS” (GLAXOSMITHKLINE BIOLOGICALS SA, priority 2020, published 2024).

B1: 102 (protein, listed as Bacteroides fragilis)
chain: MKATTSLATSCRRLLLWGVLTLQCLFSTAQKRFTADVEQQAEKILSQMTLDEKLSYIGGINWMYTRPLERFGIPRLKMSDGPQGLGTHGPSTAYPCALMLAATWNEQLATEYGSALGKDCRARGVHVLLGPAVNIYRAPMCGRNFEYMGEDPYLTSRMATGYIKGVQGQGVMATIKHFIANNSDYDRDHISSDIDERTLNEIYFPSFRAAVQEAEVGAVMSSYNLLNGIYTTEHPWLLKDVLRQQWGFKGILMSDWGSTHHCIPAVKGGLDLEMPAGSKMQPEELKYYLRTGDITIETIDEKVRHILQTLLAFGFRETQQPDTHIPLKNPQCAQTALNVASEGLVLLKNTNQILPIRSGKVKTIAVVGKNAQGYVCGGGSGEVHPFQYVSVLDGIRKEAAERDIRVEYLDVYDYLPTIIFTDTERKQKGFRAQYFDNMNLEGTPKVEQTETKINYSWSGGTGLKEMPKEQFSVRWNGTICPQETDEYLFTLGGDDGYRLYIDGKLIADEWHEGAFRNSTYRCMLEAGKKYDLKIEYFQKGGGAAVNFIWKQKNASNNLFVEALNRNDLVVACIGFNSDTEGEGRDRTFELPEDEAQLLQNTLQSKRPVVGIVNAGGNVEMQSWEPSLKGLLWAWYGGQEAGTAIARTLFGELNPSGKLPITFEKRWEDNPTFHSYYDPDGDKHVEYAEGIFVGYRGYDKLKREVQYPFGYGLSYTRFKLSAPTVGTPKTDGSVTVTCKLTNTGRTAGAEVVQLYVSNKDTTVEHPEKELKGFRKVYLEPGETKSIEITVPAEAFSHYDTGSRRFVIDRGSHDILLGFSSRDIKAKMSVGISR
B2: 178 (protein)
chain: MSELYCPIPPRDQDIYRFRQQFGANLGSTFVLGPHDNTGESNELQLLKTSLASTGLEQTRQKWQSHWHSALTDDDLVWLKDVAQCRTLRLPLSFYSLGPLFCRGTAFEGDPSEVYHHCWSTVKHLIEKCWFHGIGILIDFQASASGINLCASAKDRTIARDCVAFLAQEITFHSMSAVVGLSVSSGCEPAPDMCECYDEILKIANAIDACLPVYIDDNQAQCNKRVFKGCESDIPQFKSDISIGKIQIPSQMMLPETEVREKINKAKAERSGFQEKVLSQVSESWGSNERQSFVHGWNLGYDDALRFFGAAVQGILAPRKGADKIYDIELWVQQRKRDIDPEQLGENSAAWEDGLRRGIQDFYNIIGI
modifications: Aspergillus niger
B3: 274 (protein, listed as Modestobacter marinus)
chain: MAGDTTAPAELDRPWTNTSLSPQERARELVAAMTLEQKIAQLHGAMDTIDIYSMKADTAEGMEQLAAQIRVERHVAAIEELGIPRFRITNGPVGVGMGDGTPSPPATALPMTIGLAAGFDPALAREYGTVIGSETATLGQHVLEGPGVCLHRTPISGRNFEYFSEDPYLSGVMGVEVARAIQEHGVIAMAKHYVCNDQEYERFRADVEVDERTLRELYLLPFEMLVKDADLAAIMSAYNRVRGTYATEHRYLLHTVLREEWGWQGYVQSDFWSCRSAAPAVNAGLDHEMPDAKWLNEDNVKAALADTSLEIETVDRALVRRYTQMFRFGQFDRPYDPGEIDAEGHGAISRRIGEQIAVLLKNDGAVLPLEPGVQSVVVIGQATYVDEACLGGGGSSKVDPLYTVRPMDGLRDVLQTLGSSADLREVTVADDLSNLAEAQAAAATADVVVIMAGLVATEGADQPDAHMLNDQDRMIAEVGQVNVRTVVVLKDGNPVLMPWIDAVPAVLEAWNQGAEDGHVVADLLFGVVNPAGKLPTTYPRSWADTPFAGHPERYPGTDEGAGYPVLRYSEGRQMGYRWYQAQGITPLFPFGHGLSYTTFELSDLAVSPERTDGAAPLTVQLTVANTGDVAGAEVAQVYLELPEAAQQPPKRLVGFCKIWLEPGAAERISVTIDPAATNHPLSVWDDGAHDFVVLPGEYTVFVGSSSEDTPLSATVTID
B4: 152 (protein, listed as Kocuria rosea)
chain: MSDLWHGEEHAPGESDTAMTDATRTSGRAARLTELVDRLSLAEKVHLLTGETAFTLPGNERIGLAALAFSDGPTGVRGLTFVGGDAVALFPSATLIAGAFDDGIAEEVGRMLAEEAQRQHIHVVLGPTINLHRTPLGGRLFEAYSEDPYLTGRTAAAYVRGMQERGTAACLKHLVANESETLRNFMDSRVPETALRELYLLPFEMAVQDAGAWSMMAAYNDVNGVAATEHDHVQNGIVKGEWAWDGLIMSDWFATKRTAASASGGLDLVMPGPGGPWGERLVTAVRAGEVAEETIDDHVLRLLHLAERVGGLTPPGRQSRPWAQDLPAVDSPQRKEQLRRIAVRGMTVVANDGVLPLAVEGDAGQDVALIGRHAIDTVDMGGGSAVVNPPYLSTIAEGLAALLGDRVRVADGPAVRTRPVPADPAFLTDPATGTPGMQVVLLGADGTELTRYHSDSPAISLDGHDDLGEVPATAVLTTILANDAGPVRLGAVGAGRWDLVAEGQELSAELRLEGQDPGEAMLRPPAFAETVELPAAATLTATVAPAPVDWREVLLGDPGLGLAEESHLLQMTTAGKTALVAAPAPRPDDDLLAAAEAAAVAAGTAVVVVGLTEEQETEAADKTTLVLPGRQDELVRRVATAAERTVVVVNAATPVLMPWLDQVDAVLVAGLPGQEGGHAVAAALTGALEPTGRLVTSWPAADGAAPAWDVVPDGDRALSYDDGTFIGHRGYHAGHAPAPLFWFGHGLGYGTWEYGTVRARAGEGGPVVDVELTNTSSRASRETVQVYLDPAEDDQPIRLIGYQGVDVPSGATAAVRVRCDDRLLRRWDDAAGTWAPLAGGGELVLARGLGDVRARVPLA
B5: 84 (protein, listed as Tenericutes bacterium)
chain: MVNEELKTLLHTLSLTTKLKLLTGANFWESEKVLGTDLPIIVMNDGPFGVRKPTVNVDSGMLMEVIPATAFPTTSALASSFDPELLEKMGKTLATECIDQGVDLLLGPGINIKRSPLCGRNFEYFSEDPYLTSEMASGLVRGLQSKGVGATLKHYAVNNQEKERYTTNAIVDKRALNEIYLRPFHNVIKNTEPFSVMCSYNQINGRHASRHYKLLTEKLRNEANFKGLVVSDWGAVVDHVDSINAGLNLEMPGGYQNTAELEKAVKDGEIKLETIDEMITPLLKFMMYKRDNPKPKVKCDYKKNLEVAQEIAEKSAVLLRNEDNLLPINKTAKVGLIGNFAIKPRYQGSGSSQINPHTLVSVHDAFIQNDVNFVYADGYAEHEVKPNKKKIAEAVKVAKNSDVVVLCVGLPESYEVEGYDRKTLDMPPSHNELIKEVAKVNENIVIVLSTGSPVTMPWINDVKSILLTHLAGSMTGPATYNLLFGVTNPSGKLSETYPLSLDKGLPGGEFLTSDQNVLYRESLYVGYRYYDTFREQVLFPFGHGLSYTQFNTSHHEIEEVKDGYNITMEVTNIGHIRGAEVIGIYTGKSRSLLYGPRKELRAFKKVYLDPGEKQKINIFLPTESLKAYCPVKQEWVLENVNYNVYVGINVQTTDEIFQILVDDANDLSYLKNYQKENEMYYRRADFNPSIKDFTTLFGGESLPLFFANRKRPFTLANNISDTTDYWWGRTIYKIMAKTSRKLAGDDVVLQEMAVETIKELPFRSLSALSSGEVSTNQRDAILLLVNGKPIRGIFKFLRKKK

The first assay can be described thus: Experiment 4-1: screening of glucosidases for deglycosylation with purified QS-18 (0.04 mg/ml) at pH 7.5 and room temperature. The assay is classed as biochemical, Quillaja saponaria. To be noted: pH 7.5, room temperature, 20 h, clarified E. coli lysate, QS-18 2150 to QS-21 1988 by LCMS/MS. How it is done: Nucleotide sequences were sub-cloned into pET24b+ for expression. 10 uL of E. coli cells (One Shot® BL21(DE3) chemically competent E. coli) were transferred to each well of a 96 well PCR plate (prechilled on ice). 10 uL autoclaved water was added to the DNA, resuspended by pipetting, and 1 uL of plasmid DNA (15-30 ng) was transferred to the competent cells. Immediately after addition, the resulting mixture was mixed by pipetting. Cells were heat shocked by placing the plate in a thermal cycler at 42° C. for 30 seconds then transferred directly to an ice bath for 2 min. 100 uL sterile Lysogeny Broth (LB) medium was added to each well containing transformed cells. The content of each plate was transferred into a 96-deep well plate pre-aliquoted with 400 uL LB and the plate was incubated at 37° C. with shaking and 85% humidity for 1 hour. After outgrowth, 500 uL of sterile LB containing 100 ug/mL kanamycin was added to the plates containing cells and plates incubated at 37° C. with shaking overnight (18 hours) with humidity control (85%).
1000 mLs of Overnight Express Media was supplemented with 1 mL kanamycin 50 mg/mL and 20 mL of 50% v/v glycerol added (50 ug/mL kanamycin final and 1% glycerol). 96-Well Assay Block 2 mL plates were aliquoted with 380 uL of media per well. Pre-inoculum (20 uL) from transformation plates was added. The plates were sealed appropriately and incubated at 37° C. at 300 with shaking for 2 h. After 2 h the temperature was lowered to 20° C. and incubation continued for 20 h.
The liquid cultures were centrifuged for 10 minutes at 4° C. The supernatant was discarded, plates blotted on an absorbent material to remove residue and the plates frozen at −80° C.
Lysis buffer was prepared according to the following protocol: • 1. Polymyxin B sulphate (0.5 mg/mL) was suspended in 100 mM potassium phosphate pH 7.5 • 2. The mixture was sonicated until polymyxin B sulphate had dissolved • 3. Lysozyme (1 mg/mL) and benzonase (0.1 uL/mL lysis buffer) were added
2 copies of each cell pellet plate were removed from −80 degC freezer and allowed to thaw. 200 uL of lysis buffer was added to each well of one copy of the cell pellet plates. Plates were shaken at room temperature for 10 mins. 190 uL of cell pellet/lysis buffer was transferred to a corresponding fresh cell pellet plate. These plates were incubated at room temperature with shaking for 2 hours. Lysate was clarified by centrifugation (10 min, 4 degC).
QS-18 was obtained by analogous methods to Example 3, collecting a QS-18 containing phenyl fraction following phenyl treatment (presence of m/z corresponding to key components was confirmed by MS and the phenyl fraction then used without further treatment). QS-18 solution was prepared by diluting aqueous QS-18 (ca 1 mg/mL) with 100 mM potassium phosphate pH 7.5 to 0.2 mg/ml. 40 uL clarified lysate was transferred into fresh 96 well PCR plates. 10 uL QS-18 solution added to each well of lysate to a final concentration of 0.04 mg/ml. Incubated at room temperature with shaking for 20 h. Quenched with 50 uL MeCN and shaken at room temperature for 10 mins. Samples were analysed by LC-MS/MS using a Waters Acquity H class coupled to a Waters Xevo Tandem Quadrupole (TQD) Mass Spectrometer.
Enzyme activity was calculated as: […]
Candidate enzymes with % conversion >0.72%, i.e. >3 S.D. above negative control, were considered to be positive hits and are listed below in Table 7. Sample results are shown in FIG. 10 for a QS-21 standard, FIG. 11 for negative control and FIG. 12 for treatment with the glucosidase of SEQ ID No. 262.
As for B1, the “Expt 4-1 % conv” value worked out at 0.7%.

As for B2, the “Expt 4-1 % conv” value is on record as 0.5%.

Consider B3, for which the “Expt 4-1 % conv” value was 0.9%.

Turning to B4, the “Expt 4-1 % conv” value is 1.1%.

Consider B5, for which the “Expt 4-1 % conv” value is 0.8%.

The nature of a further assay: Experiment 4-2: screening of glucosidases for deglycosylation with purified QS-18 (1 mg/ml) at pH 6 and 30 deg C. The assay is classed as biochemical, Quillaja saponaria. The following applies: pH 6, 30 degC, 18 hrs, clarified lysate, LCMS/MS. As to the method: Lysates were prepared in an identical manner to Experiment 4-1 above, except the lysis buffer was prepared in 100 mM potassium phosphate buffer pH 6. QS-18 solution was prepared by dissolving QS-18 in 100 mM potassium phosphate buffer pH 6 (2 mg/mL).
12 uL clarified lysate was transferred into fresh 96 well PCR plates. 12 uL QS-18 solution was added (1 mg/ml final concentration), plates sealed and incubated overnight (30° C.) for 18 hrs. After quenching with 25 uL MeCN and shaking for 10 mins (RT), samples were analysed using the LC-MS/MS protocol described in Experiment 4-1 and enzyme activity determined in an analogous manner.
In the case of B1, the “Expt 4-2 % conv” value is 0.4%.

Consider B2, for which the “Expt 4-2 % conv” value is recorded as 0.8%.

Take B3: the “Expt 4-2 % conv” value turned out to be 0.3%.

As for B4, the “Expt 4-2 % conv” value is listed as 0.5%.

As to B5, the “Expt 4-2 % conv” value was found to be 0.4%.
